In the nanobody polyreactivity screen of Harvey et al. (2022):

Experiment: yeast display, Sf9 membrane polyspecificity reagent, FACS + sequencing; frameworks hold sequencing errors
Summary of the method: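 After 36–48 hours of galactose induction, yeast (Saccharomyces cerevisiae BJ5465) displaying a synthetic nanobody library were stained at 4 °C for 1 hour with 10% biotinylated, detergent-solubilized Sf9 membrane reagent. Streptavidin microbeads enriched the stained cells before FACS sorting into low and high (top ~1%) gates on anti-HA and streptavidin fluorescence. Each clone's polyreactivity label reflects its gate of origin.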

Row | Sequence | polyreactivity (PSR sort gate)
1 | QVQLVESGGGLVQAGGSLRLSCAASGFSFKRYAMGWYRQAPGKERELVADITRGGRTNYADSVKGRFTISRDNAKNTVYLQINSLKPEDTAVYYCNAVRQKYRFEYDYWGQGTQVTVSS | high polyreactivity
2 | QVHLVESGGGLVQAGGSLRLSCAASGRIFVRYAMGWYRQAPGKERELVATISGGRTNYADSVKWRFTISRDNAKNSVYLQMNSLKPEDTAVYYCAVGSHSRSSNSYYYWGQGSQVTVSS | low polyreactivity
3 | QVQLVESGGGLVQAGGSLRLSCAASGSTFGYYTMGWYRQAPGKERELVAAITKSGGGTYYADSVKGRFTISRDNAKNTVYLQMNSLKPEDTAVYYCNALYDYYDPYGSWGQGTQVTVSS | high polyreactivity
4 | HVQHVESGGGLVHAGGSLRLRCAASGSIFVYYAMGWYRQAPGKERELVAAISGGGGRKYYADSVKGRFTISRDNANNTVYLQMNSLKPDDTAVYYCAARRATYPGGFYSWGQGSQVTVSS | high polyreactivity
5 | QVQLVESGGGLVQAGGSLRLSCAASGFTFRFYAMGWYRQAPGKERELVAAISRSGGDTYYADSVKGRFTISRDNAKNTVYLQMNSLKPEDTAVYYCNKATYRVAGRDFDYWGHGTQVTVSS | high polyreactivity
6 | QVHLVESGGGLVQAGGSLLLSCGASGITFVTYAMGWYRQAPGKEREFVPAISRSGGRTYYADSVKGRFTISRDNAKNTVYLQMNSLKPEDTAVYYCASDVFLLYSFTIYDYWGQGTQVTVSS | high polyreactivity
7 | QVHLVESGGGLVQAGGSLRLSFAASGLIFFVYAMGWYRQAPGIERELVAGIRSSGGSTYYADSVKGRFTISRDNAKNTVYLQMNSLKPEDTAVYYCAARYRYGWAYRKGGDYWGQGTKVTVSS | high polyreactivity
8 | QVQLVESGGGLVQAGGSLRISCAASGSIFPRYAMGWYRQAPGTERELVATISASGTDTYYADSVKGRFTISRDNAKNTVYLQMNSLKPEDTAVYYCAAGGYPGGEDYWGQGTQVTVSS | low polyreactivity
9 | QVQLEESGGGLVQAGGSLRFSCAASGRIYRYAMGWYRQAPGKERELVASITYSGGSTYYADSVKGRFTISRDNAKNTVYLQMNSLKPEDTAVYYCAASTRHVHYGYWGQGTQVTVSS | high polyreactivity
10 | QVQLVESGGGLVQAGGSLRLSCAASGFIFGRYAMVWYRQAPGKERHFVASISWSGGSTHYADSVKGRFTISREKAKNTVYLHMNSLKPVDTAVYYCARGFPPYRVTHMNYWGQGTLVTVSS | high polyreactivity
11 | QVQLVDSGGGLVQAGGSLRLSCAASGSIIKRKAMGWYRQAPGKERELVASISSGGSTHYADSVKGRFTISRDNAKNTVYLQMNSLKPEDTAVYYCAATSIRWSVGSFRRDYWGQGTQVTVSS | low polyreactivity
12 | QVQLVESGGGLVQAGGSLRLSCAASGFIFGSYTMGWYRQAPGKERELVAAITTGGSTNYADSVKGRFTISRDNAKNTVYLQMNSLKPEDTAVYYCAARTVGFYRYDYWGQGTQVTVSS | low polyreactivity
13 | QVQLVESGGGFVQAGGSLRLSCAASGFIFAVNAMGWYRQAPGKERELVAAISSSGTTNYADSVKGRFTISRDNAKNTVYLQMNSLKPEDTAVYYCNKRWRDKYPQYDYWGQGTQVTVSS | low polyreactivity
14 | QVQLVESGGGLVQAGGSLRLSCAASGLIFRKNAMGWYRQAPGKERELVAAISSSDSSTYADSVKGRFTISRDNAKNTVYLQMYSLKPEDTAVYYCAAASYNWLDWVTREYWGQGTQVTVSS | low polyreactivity
15 | QVQLVESGGGLVQAGGSLRLSCAASGSTFKHYAMGWYRQAPGKERELVAAISERGGSTYYADSVKGRFTISRDNAKNTVYLQMNSLKPEDTAVYYCARRVSRFSKFGYWGQGTQVTVSS | high polyreactivity
16 | QVQLVESGGGLVQAGGSLRLSCAASGITFSSNTRGCYRQATGNETELVAAISSSGGSTYYADSVKGRFTISRDNAKNTFYLQINSLKPEDTAVYYCNTVRFRGWVWWEYDYWGQGTQVTVSS | high polyreactivity
17 | QVQLVESGGGLVQAGGSLRLSCAASGITFYYYGMGWYRQAPGKERELVAAITTGGNTNYADSVKGRFTISRDNAKNTVYLQMNSLKPEDTAVYYCAAEYRIPYFFTYGYWGQGTQVTVSS | high polyreactivity
